The record followed here is patent publication US20240360224A1 (ORIONIS BIOSCIENCES, published 2024).

The target in assay [1] is T1, biotinylated human CLEC9A (human, UniProt Q6UXN8 57-241, limits assumed, biotinylated (site not stated)).
T1 construct: Captured on a streptavidin sensor for BLI
Description: BLI (Octet), biotinylated human CLEC9A on streptavidin sensor, VHH at 50, 100 and 200 nM, global analysis. How it is done:
Affinities of the AFN's for Clec9A were determined using the bio-layer interferometry technology on an Octet system (ForteBio).

Assay [2] concerns the target T2, human Clec9A (human, UniProt Q6UXN8 1-241).
T2 construct: Expressed on transfected CHO-K1, HEK293-T and HL116 cells, or native on human dendritic cells; also called hClec9A; C-type lectin domain family 9 member A
As to the kind of experiment: flow cytometry, crude periplasmic extracts on CHO-K1 cells stably transfected with human Clec9A. How it is done:
A VHH library was constructed from an immunized of a llama. Three consecutive rounds of panning of a VHH library were performed in solution using stably transfected CHO-K cells expressing human Clec9A. The enrichment for antigen-specific phages was assessed after each round of panning by comparing the number of phagemid particles eluted from transfected cells (output) with the number of phagemid particles used for panning (input). The phage output increased about 10-fold in the 2nd round and about 10³-fold in the 3rd round, as compared to the output from the 1st round. The input phage was always about 10¹¹ and the output from first round was about 10⁸ phage particles. 285 randomly selected colonies from the 1st, 2nd and 3rd panning rounds (95 from each round) were sequenced and then grouped based on CDR3 sequences. Using crude periplasmic extracts including VHHs, 95 unique sequences were analyzed by flow cytometry for specificity to human Clec9A using CHO-K1 cells stably transfected with human Clec9A. The parental non-transfected CHO-K1 cells served as negative control cell. An irrelevant VHH was used as negative nanobody control. […] Table B below provides a description of 66 clones representing the 66 different anti-human Clec9A VHH genes. E. coli TG1 harboring recombinant phagemid pMECS containing anti-human Clec9A VHH sequences was generated and stored at […]. […]
A general note: A flow cytometer gives signals particle by particle.

One may read the Kd as the concentration at which binding is half-saturated. Higher therefore signals weaker binding. A word on the koff: it is a measure of how fast the partners let go of each other. In general, kon refers to a measure of how fast the partners come together. Lower therefore signals slower complex formation.

T1 sequence (Q6UXN8 57-241 limits assumed): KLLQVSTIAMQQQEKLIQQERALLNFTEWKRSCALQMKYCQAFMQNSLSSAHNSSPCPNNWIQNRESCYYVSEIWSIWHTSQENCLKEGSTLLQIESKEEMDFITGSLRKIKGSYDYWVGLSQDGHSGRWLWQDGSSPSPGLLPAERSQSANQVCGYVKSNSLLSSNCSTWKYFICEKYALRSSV
T2 sequence (Q6UXN8 whole entry, the tested form may be a part): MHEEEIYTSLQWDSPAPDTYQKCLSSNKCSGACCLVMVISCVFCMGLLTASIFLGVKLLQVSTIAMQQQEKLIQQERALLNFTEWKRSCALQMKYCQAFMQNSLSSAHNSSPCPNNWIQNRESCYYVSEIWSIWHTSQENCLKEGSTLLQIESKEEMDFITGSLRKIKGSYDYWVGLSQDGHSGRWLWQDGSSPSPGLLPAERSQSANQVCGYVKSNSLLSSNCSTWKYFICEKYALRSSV

B1: 3LEC_89_opt4 (E1D-Q5V-Q108L-A74S-G75K) (VHH)
VHH: DVQLVESGGGLVQPGGSLRLSCAASGRIFSVNAMGWYRQAPGKQRELVAAITNQGAPTYADSVKGRFTISRDNSKNTVYLQMNSLRPEDTAVYYCKAFTRGDDYWGQGTLVTVSS
notes: The entry already carries the named substitutions; pHEN6C, C-terminal his6 tag
In assay [1], B1 gave a Kd of 2.35 nM, a koff of 0.000982 s⁻¹ and an on-rate (kon) of 417000 M⁻¹ s⁻¹.

B2: 2LEC 24 (VHH)
VHH: QVQLQESGGGLVQAGGSLRLSCAASGRTFSTYAMGWFRQAPGKERGLVAAISWSGGSTYYADSVKGRFTIFRDNAENTVYLQMNSLKPEDTAVYYCAAEAEGSGREGNFYERSWYQGQGTQVTVSS
notes: Entry includes C-terminal AAA-HA-His tag (pMECS); only five His are printed in the text
Take B2: the binding result in assay [2] is “binds”.
